Experimental data as given in patent publication US20020102257A1 (published 2002).

B1: murine monoclonal antibody MAb 1308F (antibody, V domains shown)
VH: EVQKQQSGAELVRPGALVKLSCKASGFNIKDYYIYWVKQRPEQGLEWIGWIDPENGNTVFDPLFQGKASITSDTSSNTAYLQLSSLTSEDTAVYYCAYYGTSSFDFWGQGTTLTVSS
VL: DIKMTQSPSSMYVSLGERVTITCKASQDINRYLNWFQQKPGKSPKTLIHRANRLVDGVPSRFSGSGSGQEYSLTISSLEFEDMGIYYCLQFHEFPYTFGGGTKLEIL
B2: humanized 1129 antibody (CDR-grafted MAb 1129, human COR VH / K102 VL frameworks, human IgG1 kappa) (antibody, V domains shown)
VH: QVTLRESGPALVKPTQTLTLTCTFSGFSLSTSGMSVGWIRQPPGKALEWLADIWWDDKKDYNPSLKSRLTISKDTSKNQVVLKVTNMDPADTATYYCARSMITNWYFDVWGAGTTVTVSS
VL: DIQMTQSPSTLSASVGDRVTITCKCQLSVGYMHWYQQKPGKAPKLWIYDTSKLASGVPSRFSGSGSGTEFTLTISSLQPDDFATYYCFQGSGYPFTFGGGTKLEIK
B3: humanized 1308F antibody (CDR-grafted MAb 1308F, human HV3 VH / K102 VL frameworks, human IgG1 kappa) (antibody, V domains shown)
VH: QVQLVQSGAEVKKPGASVKVSCKASGFNIKDYYIYWVRQAPGQGLEWIGWIDPENGNTVFDPKFNGRVTMTRDTSTSTVYMELSSLRSEDTAVYYCAYYGTSSFDFWGQGTTLTVSS
VL: DIQMTQSPSTLSASVGDRVTITCKASQDINRYLNWYQQKPGKAPKLLIYRANRLVDGVPSRFSGSGSGTEFTLTISSLQPDDFATYYCLQFHEFPYTFGGGTKLEIL

What was measured:
[1] = biological target: RSV F protein, C-terminal truncated, secreted from recombinant baculovirus (respiratory syncytial virus) (UniProt P03420); assay: SPR (BIAcore), F protein amine-coupled, Kd = kd/ka
[2] = biological target: RSV F protein, C-terminal truncated, secreted from recombinant baculovirus (respiratory syncytial virus) (UniProt P03420); assay: SPR (BIAcore), F protein amine-coupled, Mab injected 25-300 nM
[3] = biological target: T1, RSV F protein, C-terminal truncated, secreted from recombinant baculovirus (respiratory syncytial virus, UniProt P03420 26-524); assay: as above
T1 construct: also called RSV F glycoprotein; RSV F antigen

Molecule | Kd [1] [nM] | koff [2] [s⁻¹] | kon [2] [M⁻¹ s⁻¹] | t1/2 [2] [h] | t1/2 [3] [h]
chimeric 1129 antibody (murine 1129 VH and VL joined to human C-gamma 1 and C-kappa) | 1.5 | 7.5e-05 | 50000 | 2.6 | 
murine monoclonal antibody MAb 1129 | 11.4 |  | 35000 | 0.48 | 
B1 |  |  |  |  | 5.1
B2 |  |  |  |  | 2.8
B3 |  |  |  |  | 3.5
